The record followed here is patent US20140234331A1 (published 2014).

The target in experiment [1] is Macaque CTLA-4 expressed on transfected T-cells (macaque). Kind of experiment: flow cytometry (FACScan) on cell line expressing recombinant macaque CTLA-4.
Experiment [2] has as its target T1, Recombinant CTLA-4 fusion protein comprising the extracellular domain of human CTLA-4 (R&D Systems Cat. … (human, UniProt P16410 36-161)).
T1 construct: extracellular domain; Bought protein; also called recombinant human CTLA-4 fusion protein; soluble CTLA-4; not shown: Factor Xa cleavage site and fusion partner (called Ig)
T1 sequence (looked up): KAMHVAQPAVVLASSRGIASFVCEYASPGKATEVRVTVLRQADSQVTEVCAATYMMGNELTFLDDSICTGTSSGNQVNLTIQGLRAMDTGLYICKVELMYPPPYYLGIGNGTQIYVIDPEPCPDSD
Kind of experiment: competitive ELISA with biotin labeled and unlabeled antibodies. The text has this: Competitive ELISAs were done with biotin labeled and unlabeled antibodies to determine CTLA-4 epitope specificity. Four anti-CTLA-4 epitope binding groups were identified among the human antibodies, and an additional two epitopes were defined by the commercial murine monclonal antibodies BNI3 (Pharmingen, San Diego, Calif.), and 8H5 (Ancell Corp. Bayport, Minn.).
For orientation: In an ELISA, binding on a coated surface is turned into a signal by an enzyme label.

With isotype control (Table 5) (antibody), the MFI in experiment [1] came to 4 MFI.

B1: 1E2 (human anti-CTLA-4 monoclonal antibody) (antibody, V domains shown)
VH: QVQLVESGGGVVQPGRSLRLSCAASGFTFSSYGMHWVRQAPGKGLEWVAVIWYDGSNKYYADSVKGRFTISRDNSKNTLYLQMNSLRAEDTAVFYCARAPNYIGAFDVWGQGTMVTVSS
VL: DIQMTQSPSSLSASVGDRVTITCRASQGISSWLAWYQQKPEKAPKSLIYAASSLQSGVPSRFSGSGSGTDFTLTISSLQPEDFATYYCQQYNSYPPTFGQGTKVEIK
Consider B1, for which the binding result in experiment [2] is recorded as “binds”.
